Test results reported in US20030120037A1 (published 2003).

How the values were obtained:
[1] = target: FPRL1, seven-transmembrane G-protein coupled receptor (human) (UniProt P25090); experiment: cell-based or functional assay
[2] = target: T1, FPR, classical formyl peptide receptor (human, UniProt P21462 1-350); experiment: binding of radiolabeled SAA to receptor-transfected cells
T1 construct: whole, on cells; also called FPR/293 cells
T1 sequence (looked up): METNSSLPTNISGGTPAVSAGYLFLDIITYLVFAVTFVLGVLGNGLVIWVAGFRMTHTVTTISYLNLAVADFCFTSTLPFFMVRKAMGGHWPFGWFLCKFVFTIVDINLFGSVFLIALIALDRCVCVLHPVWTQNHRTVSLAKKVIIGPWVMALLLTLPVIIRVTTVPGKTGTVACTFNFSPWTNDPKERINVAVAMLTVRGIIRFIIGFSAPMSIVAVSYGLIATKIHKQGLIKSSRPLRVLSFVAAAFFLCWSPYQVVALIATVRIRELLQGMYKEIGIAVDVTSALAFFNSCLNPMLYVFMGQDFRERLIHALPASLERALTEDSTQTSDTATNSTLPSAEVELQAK

[3] = target: T2, FPRL1, seven-transmembrane G-protein coupled receptor (human, UniProt P25090 1-351); experiment: radioligand binding on FPRL1/293 cells; 16 nM 125I-SAA with increasing unlabeled SAA; LIGAND analysis; FPRL1/293 cells; saturation/LIGAND estimate, 42000 sites/cell
T2 construct: whole, on cells; also called FPRH2; LXA4R
T2 sequence (looked up): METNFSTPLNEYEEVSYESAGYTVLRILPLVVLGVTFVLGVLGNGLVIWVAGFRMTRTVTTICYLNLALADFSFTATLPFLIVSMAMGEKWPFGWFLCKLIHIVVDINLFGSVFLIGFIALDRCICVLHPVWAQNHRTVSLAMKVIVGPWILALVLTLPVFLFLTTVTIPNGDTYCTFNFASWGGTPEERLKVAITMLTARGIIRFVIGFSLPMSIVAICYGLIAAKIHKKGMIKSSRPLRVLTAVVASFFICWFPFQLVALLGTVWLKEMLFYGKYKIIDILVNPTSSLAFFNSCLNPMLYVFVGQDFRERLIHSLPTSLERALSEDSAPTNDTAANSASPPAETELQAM
Experimental: (§1) The data was analyzed and plotted using LIGAND software on a Macintosh computer.
(§2) After incubation, the cells were washed once with ice-cold PBS then were layered onto a 10% sucrose/PBS cushion in Eppendorf tubes. The cells were centrifuged at 10,000 g for 1 min and the tips of the tubes containing cell pellets were cut and measured for radioactivity in a y-counter.

[4] = target: T2, FPRL1, seven-transmembrane G-protein …; experiment: Homologous displacement binding on human monocytes (native cells): constant 125I-SAA plus increasing unlabeled SAA, LIGAND/Scatchard analysis. The filing names FPRL1 as the SAA receptor on phagocytes; the receptor on monocytes is not isolated in this panel.
Experimental: as §1, §2

[5] = target: T2, FPRL1, seven-transmembrane G-protein …; experiment: displacement of 125I-SAA from FPRL1/293 cells by unlabeled SAA (the same value is told for monocytes and neutrophils); homologous displacement of 125I-SAA by unlabeled SAA; FPRL1/293 cells
Experimental: as §1, §2

## N-formyl-methionyl-leucyl-phenylalanine (peptide)
[1]
  Ca2+ mobilization in FPRL1 transfected cells (FPRL1/293 cells): 10 µM

B1: 125I-labeled recombinant human serum amyloid A (ligand)
chain: MRSFFSFLGEAFDGARDMWRAYSDMREANYIGSDKYFHARGNYDAAKRGPGGVWAAEAISNARENIQRFFGRGAEDSLADQAANEWGRSGKDPNHFRPAGLPEKY
modifications: radio-iodinated on tyrosine and lysine residues with the chloramine T method (125I)
notes: specific activity 5.8 mCi/mg; also called radioiodinated SAA
[2]
  binding result: no binding
[3]
  Kd: 0.064 µM
[4]
  Kd: 0.034 µM

B2: Recombinant human (rh) serum amyloid A (SAA) (ligand)
chain: MRSFFSFLGEAFDGARDMWRAYSDMREANYIGSDKYFHARGNYDAAKRGPGGVWAAEAISNARENIQRFFGRGAEDSLADQAANEWGRSGKDPNHFRPAGLPEKY
notes: Bought from Pepro Tech; also called rhSAA; unlabeled SAA
[5]
  IC50: ~0.05 µM
